From the supplement of paper PMC9112550, “Optimization of the antimicrobial peptide Bac7 by deep mutational scanning” (BMC Biology, 2022)

Test system: Escherichia coli TOP10
Experiment: shrunken log2 fold change of peptide-encoding DNA abundance (4.5 h post-induction vs induction); higher = less antimicrobial activity (less host growth inhibition)
Settings: time post-induction: 4.5 h; library: site-saturation at positions 5, 18, 19, 20
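Also: peptides expressed intracellularly from a pBAD plasmid library in pooled LB shake-flask culture, induced with 0.3% L-arabinose, DNA abundance read by NGS, three biological replicates, DESeq2 with apeglm shrinkage.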

Sequence | shrunken log2 fold change
RRIRSRPPRLPRPRPRPTHRPRP | 0.0995
RRIRYRPPRLPRPRPRPICNPRP | -0.332
RRIRLRPPRLPRPRPRPIKVPRP | -0.135
RRIRERPPRLPRPRPRPRRAPRP | 0.566
RRIRSRPPRLPRPRPRPEMLPRP | 0.536
RRIRARPPRLPRPRPRPMPAPRP | 0.722
RRIRGRPPRLPRPRPRPEWSPRP | 0.644
RRIRFRPPRLPRPRPRPNDLPRP | 0.00528
RRIRPRPPRLPRPRPRPRCYPRP | 0.0458
RRIRMRPPRLPRPRPRPCTIPRP | -0.263
RRIRIRPPRLPRPRPRPKQTPRP | -0.0291
RRIRMRPPRLPRPRPRPVRSPRP | 1.23
RRIRNRPPRLPRPRPRPSLFPRP | -0.453
RRIRIRPPRLPRPRPRPAENPRP | -0.0424
RRIRDRPPRLPRPRPRPMLVPRP | 0.116
RRIRTRPPRLPRPRPRPPHIPRP | -0.471
RRIRRRPPRLPRPRPRPDLNPRP | 0.16
RRIRARPPRLPRPRPRPPDRPRP | 0.853
RRIRGRPPRLPRPRPRPKDDPRP | 0.293
RRIRWRPPRLPRPRPRPMMPPRP | 0.0187
RRIRNRPPRLPRPRPRPVDEPRP | 0.0158
RRIRLRPPRLPRPRPRPYHAPRP | -0.186
RRIRFRPPRLPRPRPRPIFWPRP | 0.192
RRIRERPPRLPRPRPRPYAYPRP | -0.000687
RRIRARPPRLPRPRPRPSASPRP | 0.167

Sequence | shrunken log2 fold change
RRIRKRPPRLPRPRPRPSQHPRP | 0.109
RRIRMRPPRLPRPRPRPVGPPRP | 0.67
RRIRNRPPRLPRPRPRPPMPPRP | 0.0312
RRIRNRPPRLPRPRPRPHEMPRP | -0.33
RRIRDRPPRLPRPRPRPYWNPRP | -0.602
RRIRYRPPRLPRPRPRPHREPRP | -0.00804
RRIRQRPPRLPRPRPRPKCWPRP | 0.621
RRIRQRPPRLPRPRPRPNYMPRP | -0.226
RRIRIRPPRLPRPRPRPFGWPRP | 0.468
RRIRLRPPRLPRPRPRPSNYPRP | -0.53
RRIRTRPPRLPRPRPRPKWNPRP | 0.0454
RRIRYRPPRLPRPRPRPWDSPRP | -0.00191
RRIRCRPPRLPRPRPRPIGVPRP | 0.0129
RRIRIRPPRLPRPRPRPDIWPRP | -0.324
RRIRWRPPRLPRPRPRPHPHPRP | -0.0616
RRIRYRPPRLPRPRPRPCIVPRP | -0.246
RRIRKRPPRLPRPRPRPDLIPRP | -0.275
RRIRGRPPRLPRPRPRPCHNPRP | 0.033
RRIRDRPPRLPRPRPRPFMGPRP | -0.27
RRIRRRPPRLPRPRPRPKFQPRP | -0.00642
RRIRFRPPRLPRPRPRPGCTPRP | -0.116
RRIRDRPPRLPRPRPRPKIEPRP | -0.305
RRIRPRPPRLPRPRPRPQILPRP | -0.172
RRIRPRPPRLPRPRPRPYIHPRP | -0.946
RRIRPRPPRLPRPRPRPTWAPRP | 0.381

Sequence | shrunken log2 fold change
RRIRCRPPRLPRPRPRPNADPRP | 0.342
RRIRRRPPRLPRPRPRPQEIPRP | -0.149
RRIRKRPPRLPRPRPRPGDGPRP | 3.56
RRIRPRPPRLPRPRPRPEYFPRP | -0.185
RRIRCRPPRLPRPRPRPPPPPRP | 1.55
RRIRGRPPRLPRPRPRPHYSPRP | -0.661
RRIRPRPPRLPRPRPRPTHVPRP | 0.317
RRIRFRPPRLPRPRPRPFCLPRP | -0.467
RRIRTRPPRLPRPRPRPPHDPRP | 0.275
RRIRCRPPRLPRPRPRPHKDPRP | -0.636
RRIRIRPPRLPRPRPRPGELPRP | -0.0665
RRIRSRPPRLPRPRPRPTVPPRP | 0.0372
RRIRKRPPRLPRPRPRPYMFPRP | -0.109
RRIRGRPPRLPRPRPRPLYNPRP | -0.247
RRIRWRPPRLPRPRPRPMHRPRP | -0.0497
RRIRTRPPRLPRPRPRPRPMPRP | 0.184
RRIRERPPRLPRPRPRPFLGPRP | -0.284
RRIRKRPPRLPRPRPRPKHPPRP | 0.068
RRIRNRPPRLPRPRPRPFHHPRP | -0.27
RRIRYRPPRLPRPRPRPVQLPRP | -0.779
RRIRPRPPRLPRPRPRPCYQPRP | -0.565
RRIRPRPPRLPRPRPRPNIFPRP | -0.189
RRIRCRPPRLPRPRPRPARMPRP | 0.264
RRIRQRPPRLPRPRPRPFHIPRP | -1.55
RRIRKRPPRLPRPRPRPNPCPRP | 0.117

Sequence | shrunken log2 fold change
RRIRNRPPRLPRPRPRPYQTPRP | -0.00141
RRIRCRPPRLPRPRPRPSWGPRP | 0.258
RRIRRRPPRLPRPRPRPHIWPRP | -0.0694
RRIRERPPRLPRPRPRPIHVPRP | -0.274
RRIRRRPPRLPRPRPRPPFRPRP | 0.631
RRIRIRPPRLPRPRPRPLPFPRP | -1.01
RRIRHRPPRLPRPRPRPKICPRP | 0.0596
RRIRFRPPRLPRPRPRPIWYPRP | 0.192
RRIRTRPPRLPRPRPRPSSLPRP | -0.0765
RRIRWRPPRLPRPRPRPYEQPRP | -0.398
RRIRTRPPRLPRPRPRPGKTPRP | -0.0222
RRIRDRPPRLPRPRPRPVLEPRP | 0.627
RRIRRRPPRLPRPRPRPLKDPRP | -0.152
RRIRCRPPRLPRPRPRPGNQPRP | -0.644
RRIRARPPRLPRPRPRPPYCPRP | 0.276
RRIRKRPPRLPRPRPRPVGEPRP | 1.18
RRIRDRPPRLPRPRPRPWWGPRP | -0.00301
RRIRWRPPRLPRPRPRPYHSPRP | -0.215
RRIRQRPPRLPRPRPRPFYHPRP | -0.368
RRIRQRPPRLPRPRPRPIMAPRP | -0.0123
RRIRDRPPRLPRPRPRPHQKPRP | 0.365
RRIRLRPPRLPRPRPRPNGIPRP | -0.00731
RRIRERPPRLPRPRPRPSRYPRP | -0.481
RRIRNRPPRLPRPRPRPRKKPRP | 0.163
RRIRFRPPRLPRPRPRPKCLPRP | 0.049

Sequence | shrunken log2 fold change
RRIRLRPPRLPRPRPRPCFLPRP | -0.337
RRIRSRPPRLPRPRPRPLGAPRP | 0.295
RRIRWRPPRLPRPRPRPEERPRP | 0.0923
RRIRFRPPRLPRPRPRPKAIPRP | -0.0919
RRIRVRPPRLPRPRPRPYAAPRP | -0.3
RRIRRRPPRLPRPRPRPVAQPRP | 0.324
RRIRGRPPRLPRPRPRPLNMPRP | -0.114
RRIRGRPPRLPRPRPRPGQRPRP | 0.345
RRIRTRPPRLPRPRPRPQEYPRP | -0.0331
RRIRIRPPRLPRPRPRPGMLPRP | 0.0213
RRIRDRPPRLPRPRPRPWLLPRP | 0.0241
RRIRCRPPRLPRPRPRPGWCPRP | -0.0717
RRIRKRPPRLPRPRPRPCLRPRP | -0.081
RRIRHRPPRLPRPRPRPRRWPRP | -0.00291
RRIRHRPPRLPRPRPRPTLLPRP | -0.281
RRIRYRPPRLPRPRPRPDIFPRP | -0.032
RRIRMRPPRLPRPRPRPRGPPRP | 0.684
RRIRNRPPRLPRPRPRPLENPRP | -0.0075
RRIRTRPPRLPRPRPRPDCTPRP | 0.0818
RRIRPRPPRLPRPRPRPEQHPRP | 0.214
RRIRDRPPRLPRPRPRPKLWPRP | 0.527
RRIRLRPPRLPRPRPRPETWPRP | 0.0117
RRIRYRPPRLPRPRPRPELCPRP | -0.403
RRIRCRPPRLPRPRPRPEMVPRP | -0.0828
RRIRSRPPRLPRPRPRPENVPRP | 0.0202
